The text below walks through data of PMC7934871 (JCI Insight, 2021).

Non-standard residues stand in square brackets, D forms with d. No end group written: not given here. pY = N[C@@H](Cc1ccc(OP(=O)(O)O)cc1)C(=O)O

The target in the assay is STAT3 (Homo sapiens, UniProt P40763). Nature of the assay: Binding of PS-Gp130 and STAT3, immunoprecipitation and Western blotting. Further details: endogenous in cells. The settings on record: 1 μM, 4 hours prior to harvest. The procedure: Figure 8 PS-Gp130 and PS-MYC blocking peptides efficiently internalize into tumor cells to exert their functions. (A) For 1 hour 1 μM of PS-conjugated MYC (PS-MYC) and Gp130 (PS-Gp130) were incubated with cancer cells. PS-scramble MYC (PS-SC-MYC) was used as a control for PS-MYC. The peptide uptake was visualized by confocal microscopy and quantified by flow cytometry. Data are representative of 3 independent experiments (n = 3). (B) Upper panel: The binding of PS-Gp130 and STAT3 was examined by immunoprecipitation and Western blotting. PO-Gp130 was used as a control. For 4 hours prior to harvest, 1 μM of peptide was incubated with cells. Lower panel: PS-Gp130 inhibits IL-6–induced phosphorylation of STAT3 and p44/42 but not EGF-mediated signaling. […] (C) Gene expression of STAT3 targets was examined by quantitative PCR after the treatment with 1 μM of PS-Gp130 with or without IL-6 stimulation as described above. […] (D) A total of 1 μM of PS-SC-MYC or PS-MYC was incubated with cells for 48 hours before the gene expression of MYC targets was examined by quantitative PCR. […]
Chain of STAT3 (P40763 whole entry, species assumed): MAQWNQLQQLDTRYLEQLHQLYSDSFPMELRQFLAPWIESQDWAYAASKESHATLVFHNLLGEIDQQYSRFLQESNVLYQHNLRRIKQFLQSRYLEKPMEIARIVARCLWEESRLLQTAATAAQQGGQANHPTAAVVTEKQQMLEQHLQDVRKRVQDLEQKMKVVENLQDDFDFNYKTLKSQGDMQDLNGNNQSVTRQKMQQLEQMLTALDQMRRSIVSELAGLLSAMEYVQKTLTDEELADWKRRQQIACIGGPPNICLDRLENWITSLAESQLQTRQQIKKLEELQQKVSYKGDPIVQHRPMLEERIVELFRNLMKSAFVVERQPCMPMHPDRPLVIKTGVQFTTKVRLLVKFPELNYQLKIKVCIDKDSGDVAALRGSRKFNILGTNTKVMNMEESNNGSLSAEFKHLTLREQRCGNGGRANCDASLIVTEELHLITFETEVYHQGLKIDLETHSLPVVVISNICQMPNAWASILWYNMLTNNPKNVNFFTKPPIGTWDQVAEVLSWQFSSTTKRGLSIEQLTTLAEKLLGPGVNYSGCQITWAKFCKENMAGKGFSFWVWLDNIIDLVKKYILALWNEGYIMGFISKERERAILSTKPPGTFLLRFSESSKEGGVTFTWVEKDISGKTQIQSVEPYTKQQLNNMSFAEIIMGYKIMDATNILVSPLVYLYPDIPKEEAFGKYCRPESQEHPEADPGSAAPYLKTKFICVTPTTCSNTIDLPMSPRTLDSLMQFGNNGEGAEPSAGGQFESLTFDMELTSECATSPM
Whole cell lysates or tissue homogenates were prepared by using RIPA lysis buffer (50 mM Tris at pH 7.4, 150 mM NaCl, 1 mM EDTA, 0.5% NP-40, 1 mM NaF, 15% glycerol, and 20 mM β-glycerophosphate). […] Protein amounts were determined by BCA using a Thermo Fisher Scientific kit. […]
Background: A western blot detects proteins with antibodies after separation by electrophoresis.

Consider “PS-Gp130: PS-conjugated Gp130 peptide (amino acids 901–910) with phospho-Tyr905 (MPKS[pY]LPQTV; also: phosphorothioate oligonucleotide conjugate; UniProt P40189 901-910, looked up, fragment)”, for which the “binding to STAT3” value was “strongly bound”.
